Common to all, as to details: modification not given
For experiment [1], the target named is T1, CMG2 38-218 (Homo sapiens), P58335.
T1 chain: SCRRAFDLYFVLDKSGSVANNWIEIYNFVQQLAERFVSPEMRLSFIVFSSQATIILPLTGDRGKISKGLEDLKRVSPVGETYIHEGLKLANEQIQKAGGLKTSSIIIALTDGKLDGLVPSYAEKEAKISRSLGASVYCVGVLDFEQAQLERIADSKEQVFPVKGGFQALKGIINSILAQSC
In words: sandwich ELISA (competition with His6-PA 596-735).

For experiment [2] the target is unchanged. Nature of the experiment: microscale thermophoresis.
The target is the same in experiment [3]. In words: sandwich ELISA (competition with His6-PA 488-735).
The target of experiment [4] is T2, Protective antigen (PA) 488-735 (Bacillus anthracis), P13423. In words: ELISA.
Experiment [5] deals with T2, Protective antigen (PA) 488-735 ….

Three molecules from article PMC5465072 can be followed below.

As to CLRFT, the IC50 in experiment [1] was 71.3 µM; in experiment [3], 77.1 µM. In experiment [2], this molecule returned a Kd of 30.2 µM.
In experiment [4], CMNHFPA had an IC50 of 49.8 µM. The same molecule had a dissociation constant (Kd) in experiment [5] of 38.2 µM.
In experiment [4], HPCNAMF [HPCNAMF (scrambled CMNHFPA)] registered an IC50 of 153 µM.
